Target: CVB3 3D (Coxsackievirus B3, UniProt P03313 1724-2185)
Assay: ITC

CVB3 3D, sequence (P03313 1724-2185): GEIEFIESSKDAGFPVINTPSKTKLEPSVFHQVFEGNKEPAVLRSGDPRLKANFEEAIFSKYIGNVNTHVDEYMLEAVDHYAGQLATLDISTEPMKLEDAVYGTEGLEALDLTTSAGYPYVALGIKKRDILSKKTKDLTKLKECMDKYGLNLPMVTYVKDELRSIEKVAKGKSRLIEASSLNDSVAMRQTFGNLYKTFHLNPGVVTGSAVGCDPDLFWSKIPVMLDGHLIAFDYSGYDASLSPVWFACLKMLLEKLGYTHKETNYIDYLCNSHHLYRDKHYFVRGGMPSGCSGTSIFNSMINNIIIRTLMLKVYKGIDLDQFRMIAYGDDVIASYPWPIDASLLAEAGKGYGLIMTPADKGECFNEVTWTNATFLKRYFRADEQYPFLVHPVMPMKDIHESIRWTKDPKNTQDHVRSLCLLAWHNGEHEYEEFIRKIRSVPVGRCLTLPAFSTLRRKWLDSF

B1: CVB3 CL WT (structured_RNA)
RNA: GGUAAAACAGCCUGUGGGUUGAUCCCACCCACAGGGCCCAUUGGGCGCUAGCACUCUGGUAUCACGGUACCUUUGUGCGCCUGUUUUACC
binding result: no binding

— PMC12540871
